Measurements from the nanobody polyreactivity screen of Harvey et al. (2022).

Experiment: yeast display, Sf9 membrane polyspecificity reagent, FACS + sequencing; frameworks hold sequencing errors
Method in brief: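 Polyreactivity labels are assigned by the sorting gate from which each nanobody was recovered. The gates were low and high (top ~1%), set on anti-HA fluorescence for expression and streptavidin fluorescence for reagent binding. Before sorting, galactose-induced (36–48 hours) yeast display cells were stained for 1 hour at 4 °C with 10% biotinylated, detergent-solubilized Sf9 membrane reagent.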

| Sequence | polyreactivity (PSR sort gate) |
| --- | --- |
| QVQLVESGGGLVQAGGSLRLSCAASGRIFPSYAMGWYRQAPGKERELVAAISRSGGRTYYADSVKGRFTISRDNAKNTVYLQMNSLKPEDTAVYYCYPYYIASTFDYWGQGTQVTVSS | high polyreactivity |
| QVQLVESGGGLVQAGGSLRLSCAASGRIFPSYAMGWYRQAPGKERELVAAISSSGGRTYYADSVKGRFTISRDNAKNTVYLQKNSLKPEDTAVYYCNARSPAYFYQWLYSFRYDYWGQGTQVTVSS | high polyreactivity |
| QVQLVESGGGLVQAGGSLRLSCAASGRIFPSYMGWYRQAPGKERELVARISNTGSTYYADSVKGRFTISRDNAKNTVYIQMNSLKPEDTAVYYCAAVYIFRVFSHPPYDYWGQGTQVTVSS | low polyreactivity |
| QVQLVESGGGLVQAGGSLRLSCAASGRIFPTNAMGWYRQAPGKERELVAGISSSGGSTYYADSVKGRFTISRDNAKNTVYLQMNSLKPEDTAVYYCNAVGYQYLRVYYWGQGTQVTVSS | low polyreactivity |
| QVQLVESGGGLVQAGGSLRLSCAASGRIFPTNAMGWYRQPPGKEREFVAAITWRGGSTYYADSVKGRFTISRDNAKNTVYLQMNSLKPEDTAVYYCAAELDYFPGYDYWGQGTQVTLSS | low polyreactivity |
| QVQLVESGGGLVQAGGSLRLSCAASGRIFPTYAMGWYRQAPGKERELVAAITWRGGRTYYADSVKGRFTISRDNAKNTVYLQMNSLKPEDTAVYYCAAGWLTRSYEYDYWGQGTQVTVSS | high polyreactivity |
| QVQLVESGGGLVQAGGSLRLSCAASGRIFPVNALGWYRQAPGKEREFVAAISYSGVSTRYADSVKGRFTISRDKAKNTVYLQMNSLKPEDTAVYYCAARMSVREDYWGQGTQVNVSS | high polyreactivity |
| QVQLVESGGGLVQAGGSLRLSCAASGRIFPVNAMGWYRQAPGKERELVATISRGGNTYYADSVKGRFTISRDNAKNTVYLQMNSLKPEDTAVYYCNVDRGNPVPPSEYWGQGTQVTVSS | low polyreactivity |
| QVQLVESGGGLVQAGGSLRLSCAASGRIFPVYAMGWYRQAPGKERELVAAISRRGGSTYYADSVKGRFTISRDNAKNTVYLQMNSLKPEDTAVYYCAATAYYYWWWYGGDMDYWGQGTQVTLSS | high polyreactivity |
| QVQLVESGGGLVQAGGSLRLSCAASGRIFPWYAMGWYRQAPGKERELVAAISWSGGRTYYADSVKGRFTISRDNAKITVYLQMNSLKPEDTAVYYCNTGTSGRFLSFGNFDYWGQGTQVTVSS | high polyreactivity |
| QVQLVESGGGLVQAGGSLRLSCAASGRIFPYKAMGWYRPAPGKERELVAAITSSGGSTYYADSVKGRFTISRDNAKNTVYLQMNSLKPEDTAVYYCNKDIERYVRIYDSWGQGTQVTVSS | low polyreactivity |
| QVQLVESGGGLVQAGGSLRLSCAASGRIFPYNAMGWYRQAPGKERELVASITGSGGSTYYADSVKGRFTISRDKAKKTVYLQMNSLKPEDTAVYYCAVQGGYFYTWDGDYWGQGTQVTVSS | low polyreactivity |
| QVQLVESGGGLVQAGGSLRLSCAASGRIFPYNTMGLYRQAPGKERELVAAISRRGGSTYYADSVKGRFTISRDNAKNTVYLQMNSLKPEDTAVYYCNAVKPRDYGGLAYDYWGQGTQVTVSS | high polyreactivity |
| QVQLVESGGGLVQAGGSLRLSCAASGRIFPYNVMGWYRQAPGKERELVAAISWSGGRTYYADSVKGRFTISRDNAKKTVYLQMNSLKPEDTAVYYCNTRTLVAMGYWGQGTEVTVSS | high polyreactivity |
| QVQLVESGGGLVQAGGSLRLSCAASGRIFPYYAMGWYRQAPGKERELVAAINRGGSTNYADSVKGRFTISRDNAKNTVYLQMNSLKPEDTAVYYCAALSRTHGVSYDYWGQGTQVTVSS | high polyreactivity |
| QVQLVESGGGLVQAGGSLRLSCAASGRIFPYYAMGWYRQAPGKERELVAAISQSGGSTNYADSVKGRFTISRDNAKNTVYLQLNSLKPEDTAVYYCNVDVSRSWAQPYTYDYWGQGTQVTVSS | low polyreactivity |
| QVQLVESGGGLVQAGGSLRLSCAASGRIFPYYAMGWYRQAPGKERELVATITSGGSTYYADSVKGRFTISRDNAKNTVYLQMNSLKPEDTAVYYCAARYPSIYYYRYDYWGQGTQVTVSS | high polyreactivity |
| QVQLVESGGGLVQAGGSLRLSCAASGRIFPYYAMGWYRQAPGKEWELVAAISSSSGSTYYADTVKGRFTISRDNAKNTVYLQMNSLKPEDTAVYYCAARKSWRYNIWSRNAYEDWGQGTQVTVSS | high polyreactivity |
| QVQLVESGGGLVQAGGSLRLSCAASGRIFPYYTRGWYRQAPGKERELVATITTGGSTNYADSVKGRFTISRDNAENTVYLQMNSLKPEDTAVYYCAKREASSRWPYDYWGQGTQVTVSS | low polyreactivity |
| QVQLVESGGGLVQAGGSLRLSCAASGRIFQAYAMGWYRQAPGKERELVASISYRGGITYYADSVKGRFTISRDNAKNTVYLQMNSLKPEDTEVYYCAAGRKGSMYYWGQGTQVTVSW | high polyreactivity |
| QVQLVESGGGLVQAGGSLRLSCAASGRIFQGNAMGWYRQAPGKERELVAAIDWSGGGSTYADSVKGRFTISRDNAKNTVYLQMNSLKPEDTAVYYCARDVVWGEDYWGQGTQVTVSS | low polyreactivity |
| QVQLVESGGGLVQAGGSLRLSCAASGRIFQGYAMGWYRQAPGKERELVAAISVRGGSTFYADSVKGRFTISRDNAKNTVYLQMNSLKPEDTAVYYCATRTRYRGGYWGQGTQVTVSS | high polyreactivity |

| Sequence | polyreactivity (PSR sort gate) |
| --- | --- |
| QVQLVESGGGLVQAGGSLRLSCAASGRIFQGYAMGWYRQAPGKERELVAAITLSGGSTYYADSVKGRFTISRDHAKNTVYLQMNSLKPEDTAVYYCNAYYPDEPSLYDYWGQVTQVTVSS | low polyreactivity |
| QVQLVESGGGLVQAGGSLRLSCAASGRIFQKNTMGWYRQAPGKERELVAAINWNGGRTYYADSVKGRFTISRDNAKNTVYLQMNSLKPEDTAVYYCAKDGYWDFDYWGQGTQVTVSS | low polyreactivity |
| QVQLVESGGGLVQAGGSLRLSCAASGRIFQKYAMVWYRQAPGKERELVAAISSGDSTYADSVKGRFSISRDNAKNTVYLQMNSLKPEDTAVYYCAGDLYDPWWYSYMGEYEYWGQGTQVTVSS | low polyreactivity |
| QVQLVESGGGLVQAGGSLRLSCAASGRIFQPNVMGWYRQAPGIERELVAAIRSGSSTYYADSVKGRFTISRDNAKNTVYLQMNSLKPEDTAVDYCATRYRKQYKPYEYWGQGTQVTVSA | high polyreactivity |
| QVQLVESGGGLVQAGGSLRLSCAASGRIFQSNAMGWNIQAPGKERELVAASNSGDSTYYADSVKGRFTISRDNAINTVYLQMNSLQPEDTAVYYSAADAVYQYYSYYYWGQGTQVTVSS | low polyreactivity |
| QVQLVESGGGLVQAGGSLRLSCAASGRIFQTYAMGWYRQAPGKERELVASISWSGGSTYYADSVKGRFTILRDNAKNTVYLQMNSLKPEDTAVYYCAAVYYSTDYYFWYDYWGQGTQVTVSS | low polyreactivity |
| QVQLVESGGGLVQAGGSLRLSCAASGRIFQTYDMGWYRQAPGKERELVARIRLSGGSTYYADSVKGRFTISRDNAKNTVYLQMNSLKPEETAVYYCAARYSRALFTDPYYYWGQGTQVTVSS | high polyreactivity |
| QVQLVESGGGLVQAGGSLRLSCAASGRIFQWYAMGWYRQAPGKERELVAAISWRDGRTYYADSVKGRFTISRDNAKNNVYLQMNSLKPEDTAVYYCAVRTFGRYGYWGQGTQVTVSS | high polyreactivity |
| QVQLVESGGGLVQAGGSLRLSCAASGRIFQYDVMGWYRQAPGKERELVARITYNGGGTYYADSVKGRFTISRDTAKNTVYLQMNSLKPEDTAVYYCNARYPWRDWEDDYWGQGTQVTVSS | low polyreactivity |
| QVQLVESGGGLVQAGGSLRLSCAASGRIFQYNTMGWYRQAPGKERELVAGISSGGSTNYADSVKGRFTISRDNAKNTVYLQMNSLKPEDTAVYYCAARAKRYNVRFDYWGQGTQVTVSS | high polyreactivity |
| QVQLVESGGGLVQAGGSLRLSCAASGRIFQYYAMGWYRQAPGKERELVAAIDQSGDTTYYADSVKGRFTISRDNAKNTVYLQMNSLKPEDTAVYYCAAGYDWAYHWVPQWMYYWGQGTQVTVSS | low polyreactivity |
| QVQLVESGGGLVQAGGSLRLSCAASGRIFQYYAMGWYRQAPGKERELVASISGRGGRTYYADSVKGRFTISRDNAKNTVYLQMNSLKPEDTAVYYCNAVFSTIRYIRSYNYWGQGTQVTVSS | high polyreactivity |
| QVQLVESGGGLVQAGGSLRLSCAASGRIFQYYDMGWYRQAPGKERELVAAITFSGGSTYYADSVKGRFTISRDNAKNTVYLLMNSLKPEDTAVYYCARGYWVYYPDGDYWGQGTQVTVSS | low polyreactivity |
| QVQLVESGGGLVQAGGSLRLSCAASGRIFQYYTMGWYRQAPGKERELVAAITYSGGDTRYADSVKGRFTISRDNAKNTVYLQMNSLKPEDTAVYYCAAHYFHQYQYGVWTYGYWGHGTQVTVSS | low polyreactivity |
| QVQLVESGGGLVQAGGSLRLSCAASGRIFQYYVMGWYRKAPGKERELVAAITRRGTNTYYADSVKGRFTISRDNAMNTVYLQMNSLKPEDTAVYYCAAEAQTKWWDYYYWGQGTQVTVSS | high polyreactivity |
| QVQLVESGGGLVQAGGSLRLSCAASGRIFRAYAMGWYRQAPGKERELVAAIRGRGGSTYADSVKGRFTISRDNAKNTVYLQMNSLKPEDTAVYYCAAGYYRYAWPYYGGRDYWGQGTQVTVSS | high polyreactivity |
| QVQLVESGGGLVQAGGSLRLSCAASGRIFRAYAMGWYRQAPGKERELVAAISSGGITSYADSVKGRFTISRDNAKNTVYLQMNSLKPEDTAVDYCAALVYPYWGGSMYYWGQGTQVTVSS | high polyreactivity |
| QVQLVESGGGLVQAGGSLRLSCAASGRIFRDNAMGWYRQAPGKEREFVARITISTGTTYYADSVKGRFTISRDNAKNTVYLQMNSLKPEDTAVYYCAALYTVSYLTSPVSYRYDYWGQGTQVTVSS | low polyreactivity |
| QVQLVESGGGLVQAGGSLRLSCAASGRIFRDYAMGWYRLAPGKERELVAAITLSGTTTYYADSVKGRFTISRDNAKNTVYVQMNSLKPEDTAVYYCNAPRYRYRPHEGDYWGQGTQVTVSS | low polyreactivity |
| QVQLVESGGGLVQAGGSLRLSCAASGRIFRDYAMGWYRQAPGKERELVAAITRSGDTTYYADSVKGRFTISRDNAKNTVYLQMNSLKPEDTAVYYCAARYVSRYYVYRGFEYWGQGTQVTVSS | high polyreactivity |
| QVQLVESGGGLVQAGGSLRLSCAASGRIFRFYAMGWYRKAPGKERELVAAISSSGVRTYYADSVKGRFTISRDNAKNTVYLQMNSLKPEDTAVYYCAKRTVWWSNWHYYPPTYNYWGQGTQVTVSS | high polyreactivity |
